From patent publication US20180125988A1, “TARGETED XTEN CONJUGATE COMPOSITIONS AND METHODS OF MAKING SAME” (AMUNIX OPERATING INC., priority 2014, published 2018) come the findings set out here.

This assay concerns the target HER2 (ErbB2, HER2/neu receptor) on HER2 expressing tumor cell lines (human (human tumor cell lines)) (UniProt P04626). Kind of assay: cell-based or functional assay.

B1: XTEN432-3xMMAE (protein)
chain: SAGSPTAEAAGCGTAEAAGTSESATPESGPGSEPATSGSETPGTSESATPESGPGTSTEPSEGSAPGTSESATPESGPGSPAGSPTSTEEGSPAGSPTSTEEGSPAGSPTSTEEGTSESATPESGPGTSTEPSEGSAPGTSESATPESGPGSEPATSGSETPGTSESATPESGPGSEPATSGSETPGTSESATPESGPGTSTEPSEGSAPTAEAAGCGTAEAAGSPAGSPTSTEEGTSESATPESGPGSEPATSGSETPGTSESATPESGPGSPAGSPTSTEEGSPAGSPTSTEEGTSTEPSEGSAPGTSESATPESGPGTSESATPESGPGTSESATPESGPGSEPATSGSETPGSEPATSGSETPGSPAGSPTSTEEGTSTEPSEGSAPGTSTEPSEGSAPGSEPATSGSETPTAEAAGCGTAEAASASR
B1: the IC50, CellTiter-Glo cytotoxicity, BT474 cells is above 300 nM; the IC50, CellTiter-Glo cytotoxicity, HCC1954 cells is above 300 nM; the IC50, CellTiter-Glo cytotoxicity, NCI-N87 cells is above 1000 nM; the IC50, CellTiter-Glo cytotoxicity, SK-BR-3 cells is above 300 nM. Also, the IC50, CellTiter-Glo cytotoxicity, SK-OV-3 cells is above 700 nM.

B2: XTEN432-3xDM1 (protein)
chain: B1 chain
B2 returned an IC50, CellTiter-Glo cytotoxicity, BT474 cells above 1000 nM; an IC50, CellTiter-Glo cytotoxicity, HCC1954 cells above 360 nM; an IC50, CellTiter-Glo cytotoxicity, NCI-N87 cells above 1000 nM; an IC50, CellTiter-Glo cytotoxicity, SK-BR-3 cells above 1000 nM. The same molecule had an IC50, CellTiter-Glo cytotoxicity, SK-OV-3 cells above 700 nM.
